Measured values published in patent US20250019435A1 (ALBERT EINSTEIN COLLEGE OF MEDICINE, published 2025).
Positions count from the first letter of the chain named. Names may count otherwise.

T1: PVR-Ig fusion protein (UniProt P15151 27-343)
T1 construct: Bought (R&D Systems); also called PVR-Ig protein; not shown: Ig part, detected with anti-human IgG Fc
T1 sequence (looked up): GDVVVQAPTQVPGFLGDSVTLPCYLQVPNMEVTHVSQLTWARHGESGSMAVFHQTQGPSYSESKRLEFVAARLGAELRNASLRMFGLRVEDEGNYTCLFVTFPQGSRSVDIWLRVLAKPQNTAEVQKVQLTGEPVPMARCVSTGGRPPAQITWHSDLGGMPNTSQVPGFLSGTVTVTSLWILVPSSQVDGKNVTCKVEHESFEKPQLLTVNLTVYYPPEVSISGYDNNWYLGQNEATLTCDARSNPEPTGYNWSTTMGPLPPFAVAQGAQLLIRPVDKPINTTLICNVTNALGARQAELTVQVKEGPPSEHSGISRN

T2: PVR expressed on transduced cells (PVR-YFP) (UniProt P15151 21-417)
T2 construct: whole, on cells; On NIH 3T3 or Raji cells; also called PVR/3T3; PVR-YFP/3T3; not shown: YFP ('PVR-YFP ... fusion protein')
T2 sequence (looked up): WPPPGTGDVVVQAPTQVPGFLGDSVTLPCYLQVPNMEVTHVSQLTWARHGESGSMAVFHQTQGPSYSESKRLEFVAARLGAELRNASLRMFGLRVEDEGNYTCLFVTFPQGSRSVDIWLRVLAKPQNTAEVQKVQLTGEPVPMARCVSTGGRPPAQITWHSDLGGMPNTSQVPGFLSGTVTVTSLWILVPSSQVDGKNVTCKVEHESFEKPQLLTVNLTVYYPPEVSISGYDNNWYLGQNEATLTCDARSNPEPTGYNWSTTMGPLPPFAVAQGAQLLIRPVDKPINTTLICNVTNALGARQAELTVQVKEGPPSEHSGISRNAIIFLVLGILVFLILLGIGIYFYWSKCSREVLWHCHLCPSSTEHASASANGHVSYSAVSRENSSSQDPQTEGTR

B1: D2-deleted KIR2DL5 expressed on 3T3 cells (receptor)
chain: HEGGQDKPLLSAWPSAVVPRGGHVTLLCRSRLGFTIFSLYKEDGVPVPELYNKIFWKSILMGPVTPAHAGTYRCRGSHPRSPIEWSAPSNPLVIVVTGNSSSSSSSPTEPSSKTGIRRHLHILIGTSVAIILFIILFFFLLHCCCSNKKNAAVMDQEPAGDRTVNREDSDDQDPQEVTYAQLDHCVFTQTKITSPSQRPKTPPTDTTMYMELPNAKPRSLSPAHKHHSQALRGSSRETTALSQNRVASSHVPAAGI
notes: also called KIR2DL5 dD2
B2: anti-KIR2DL5 mAb clone B2A18 (antibody, V domains shown)
VH: QIQLVQSGPEVKKPGETVKISCKASGYTFTKYGMNWVKQAPGKGLKWMGWINTNTGESTYAEDFKGRFAFSLETSANTAFLQINNLKNEDTAAYFCARWGPYGSSLYYGMDYWGQGTSVTVS
VL: DIQMTQSSSSFSISLGDRVTITCRASEDLYNRLAWYQQKPGNAPRLLISGATSLETGVPSRFSGSGSGKDFTLSIPSVQTEDVGTYYCQQYRYTPWTFGGGTTLN
notes: also called B2A18, (IgG1, κ)
B3: anti-KIR2DL5 mAb clone B33C12 (antibody, V domains shown)
VH: QVQLQQSGAELVKPGASVKMSCKAFGYTFTSFPIEWMKQNHGKSLEWIGNFHPSNDDTKYNEKFNGKAKLTAETSSKTVYLELSRLTSDDSAVYYCARGSDYSFALDYWGQGTSVTVSS
VL: GIVLTQSPASLAVSLGQRATISCRASESVDSYGYSFMHWYQQKPGQPPKLLIYRASNLKSGIPARFSGSGSRTDFTLTINPVEADDVATYYCQQSNEDPWTFGGGTKLEIK
notes: also called B33C12 (IgG2a, κ)
B4: anti-KIR2DL5 mAb clone B11B4 (antibody, V domains shown)
VH: B3 VH with A9G, S54Y, S91C, A92S, A105G
VL: GIVLTQSPASLVVSLGQRATISCRASESVDSYGYSFMHWYQQKPGQPPKLLIYRASNLKSGIPARFSGSGCRTDFTLTINPVEADDVATYYCQQSNEDPWTFGGGTKAGN
notes: also called B11B4 (IgG2b, κ)
B5: D0-deleted KIR2DL5 expressed on 3T3 cells (receptor)
chain: GLFGKPSLSAQPGPTVRTGENVTLSCSSRSSFDMYHLSREGRAHEPRLPAVPSVNGTFQADFPLGPATHGGTYTCFGSLHDSPYEWSDPSDPLLVSVTGNSSSSSSSPTEPSSKTGIRRHLHILIGTSVAIILFIILFFFLLHCCCSNKKNAAVMDQEPAGDRTVNREDSDDQDPQEVTYAQLDHCVFTQTKITSPSQRPKTPPTDTTMYMELPNAKPRSLSPAHKHHSQALRGSSRETTALSQNRVASSHVPAAGI
notes: the signal peptide 1-21 is left out; also called KIR2DL5 dD0; DO-deleted KIR2DL5
B6: Y328F (receptor)
receptor chain: HEGGQDKPLLSAWPSAVVPRGGHVTLLCRSRLGFTIFSLYKEDGVPVPELYNKIFWKSILMGPVTPAHAGTYRCRGSHPRSPIEWSAPSNPLVIVVTGLFGKPSLSAQPGPTVRTGENVTLSCSSRSSFDMYHLSREGRAHEPRLPAVPSVNGTFQADFPLGPATHGGTYTCFGSLHDSPYEWSDPSDPLLVSVTGNSSSSSSSPTEPSSKTGIRRHLHILIGTSVAIILFIILFFFLLHCCCSNKKNAAVMDQEPAGDRTVNREDSDDQDPQEVTYAQLDHCVFTQTKITSPSQRPKTPPTDTTMFMELPNAKPRSLSPAHKHHSQALRGSSRETTALSQNRVASSHVPAAGI
notes: also called KIR2DL5 Y328F (ITSM mutant) on transduced primary NK cells

Experiments:
[1] = biological target: T1, PVR-Ig fusion protein; experiment: flow cytometry, PVR-Ig on transduced 3T3 cells
Description: FIG. 10A-E: Allelic polymorphism affected PVR binding of KIR2DL5. (A) Flow cytometric analysis of PVR-Ig or CD112-Ig (open) or control hIg (shaded) binding to KIR2DL5/3T3. (B) Flow cytometric analysis of PVR-Ig binding to KIR2DL5/3T3 in the presence of increasing concentrations of F8B30. (C) KIR2DL5 bound to different sites of PVR from other receptors. PVR-Ig protein was preincubated with indicated His-tagged protein and then stained KIR2DL5/3T3 cells. […] (D) Flow cytometric analysis of PVR-Ig (open) or control hIg (shaded) binding on 3T3 cells expressing WT, DO-deleted, or D2-deleted KIR2DL5. Parental 3T3 cells were used as a negative control. (E) Flow cytometric analysis of PVR-Ig or control hIg (shaded) binding on 3T3 cells expressing different KIR2DL5 alleles. In A-E, data are representative of 2 independent experiments.
Fusion protein cell binding assays. PVR-Ig, CD112-Ig, or hIgG (R&D Systems) was incubated with corresponding 3T3 cells on ice for 45 minutes, followed by incubation with APC- or PE-conjugated anti-human IgG Fc antibody (1:100; clone HP6017, BioLegend) on ice for 30 minutes. Cells were then acquired on an LSR II flow cytometer (BD Biosciences). In the anti-KIR2DL5 mAb blocking assay, KIR2DL5/3T3 cells were preincubated with a serial concentration of anti-KIR2DL5 mAb F8B30 or mIgG1 on ice for 30 minutes. […]

[2] = biological target: T3, KIR2DL5-Ig fusion protein (KIR2DL5 extracellular domain fused to human IgG1 Fc) (human, UniProt Q8N109 22-240); experiment: BLI, Octet RED96; KIR2DL5-Ig captured on anti-human Fc biosensors, mAb in solution; global 1:1 fit
T3 construct: A D0-only fusion (H22-A128) also exists; also called KIR2DL5-human Ig fusion protein; KIR2DL5 DO-D2-Ig; not shown: human IgG1 Fc tag
Description: Biolayer interferometry. The affinities of anti-KIR2DL5 mAbs were analyzed by biolayer interferometry using an Octet RED96 system (ForteBio, Pall LLC). Briefly, anti-human Fc capture biosensors (ForteBio, Pall LLC) were preloaded with KIR2DL5-Ig and then dipped into a solution containing mAb at 2-fold serial dilutions (from 200 to 1.5 μg/mL). Data were analyzed using Forte Pall (Port Washington, New York, USA) software 9.0. The global data fitting to a 1:1 binding model was used to estimate values for the Kₒₙ (association rate constant), Koff (dissociation rate constant), and KD (equilibrium dissociation constant).

[3] = biological target: T4, KIR2DL5A*005 allele expressed on 3T3 cells (human); experiment: flow cytometry, 3T3 cells expressing KIR2DL5 alleles, mAb 5 µg/ml
T4 construct: also called 2D5A*005

[4] = biological target: B5; experiment: flow cytometry, transduced 3T3 cells
Source text: FIG. 15A-15E: Characterization of anti-KIR2DL5 specific monoclonal antibodies. (Related to FIGS. 8A-8D). (A) The protein sequence of KIR2DL5. The extracellular domain of KIR2DL5 was composed of tandem DO-D2 domains. The cytoplasmic tail of KIR2DL5 contained an immunoreceptor tyrosine-based inhibition motif (ITIM) and immunoreceptor tyrosine-based switch motif (ITSM). Domains were predicted and annotated based on UniProtKB (Q8N109). (B) The specificity of anti-KIR2DL5 mAbs. 3T3 cells transduced with indicated KIR family members were stained with 5 μg/ml of indicated anti-KIR2DL5 mAbs (open) or mIgG1 (shaded). (C, D) The affinity of anti-KIR2DL5 mAbs. C: Kinetic binding curves for F8B30 and B19C11. D: Data were acquired from kinetic binding curves detected by the Octet Red96 BLI instrument for indicated clones. (E) 3T3 cells transduced with DO-deleted (KIR2DL5 dD0) or D2-deleted KIR2DL5 (KIR2DL5 dD2) were stained with 5 μg/ml of indicated anti-KIR2DL5 mAbs. In B-E, data are representative of three independent experiments.

[5] = biological target: T2, PVR expressed on transduced cells …; experiment: confocal imaging of conjugates of transduced primary NK cells with PVR-YFP/Raji cells
Description: The KIR2DL5⁻ primary NK cells were transduced with WT KIR2DL5 or the indicated mutants, and then examined for protein expression with F8B30 (open) or mIgG1 (shaded). NC, negative control. Data are representative of 2 independent experiments. (B and C) Transduced primary NK cells were treated with (+) or without (−) pervanadate (VO₄) for 5 minutes. Cell lysates were immunoprecipitated with anti-KIR2DL5 antibodies. Phospho-tyrosine (4G10), SHP-1, SHP-2, and total KIR2DL5 were detected by immunoblots (B). Quantification of p-Tyr, SHP-1, and SHP-2 association with WT or mutant KIR2DL5 in VO₄-treated NK cells (C). WCL, whole-cell lysates. (D) Representative imaging of cell conjugates acquired upon the indicated transduced primary NK and PVR/Raji cell contact followed by staining with anti-KIR2DL5 mAb and DAPI. Scale bars: […]. (E) Lysis of scramble control or PVR^KO A427 (top) and Jurkat (bottom) by WT or mutant KIR2DL5-transduced primary NK cells at the indicated E/T ratios. Data are mean for duplicate measurements and representative of 3 independent experiments with 3 different donors. In A, and B, data are representative of 3 independent experiments. *P<0.05, **P<0.01, ***P<0.001, ****P<0.0001, by 1-way ANOVA (C), or paired Student's t test (D).
NK-Raji conjugation assay. […] Cell mixtures were then loaded onto poly-L-lysine-precoated slides and fixed with 4% formaldehyde at RT for 15 minutes. After blocking with 5% normal goat serum at RT for 1 hour, cells were stained with 20 µg/mL anti-KIR2DL5 antibodies (a mixture of 8 homemade clones) at 4° C. overnight and then with goat anti-mIgG (H+L) Alexa Flour 647 (Invitrogen) at RT for 2 hours. The cells were permeabilized by 0.1% Triton X-100 at RT for 15 minutes and stained with Alexa Flour Plus 405 Phalloidin (Life Technologies) for 1 hour at RT. The slides were then mounted by Gold Antifade Mountant without DAPI (Life Technologies). The mean pixel intensity of synapse and non-synapse was respectively measured and statistically analyzed. Images were acquired by Leica SP8 confocal microscope and processed by ImageJ (NIH).

Row | binding result [1] | Kd [2] [nM] | koff [2] [s⁻¹] | kon [2] [M⁻¹ s⁻¹] | binding result [3] | binding result [4] | binding result [5] | Binder
1 | no binding |  |  |  |  |  |  | B1
2 |  | 0.104 | 0.000175 | 1.68e+06 | binds | no binding (tested: 5 µg/ml) |  | B2
3 |  | 0.359 | 0.000299 | 835000 | binds | no binding (tested: 5 µg/ml) |  | B3
4 |  | 0.245 | 0.000202 | 825000 |  | no binding (tested: 5 µg/ml) |  | B4
5 | no binding |  |  |  |  |  |  | B5
6 |  |  |  |  |  |  | binds | B6
